Where two headings read alike, the source gives them in different places.

The target of experiment [1] is human TrkB on CHO cells (CHO-K1-hTrkB/pSRE-Luc) (human) (UniProt Q16620). The experiment in a line: cell-based or functional assay.
Experiment [2] shares this target. The experiment is described as follows: cell-based or functional assay. This is another data set of the same source.

Chain of human TrkB on CHO cells (CHO-K1-hTrkB/pSRE-Luc) (human) (Q16620 32-822): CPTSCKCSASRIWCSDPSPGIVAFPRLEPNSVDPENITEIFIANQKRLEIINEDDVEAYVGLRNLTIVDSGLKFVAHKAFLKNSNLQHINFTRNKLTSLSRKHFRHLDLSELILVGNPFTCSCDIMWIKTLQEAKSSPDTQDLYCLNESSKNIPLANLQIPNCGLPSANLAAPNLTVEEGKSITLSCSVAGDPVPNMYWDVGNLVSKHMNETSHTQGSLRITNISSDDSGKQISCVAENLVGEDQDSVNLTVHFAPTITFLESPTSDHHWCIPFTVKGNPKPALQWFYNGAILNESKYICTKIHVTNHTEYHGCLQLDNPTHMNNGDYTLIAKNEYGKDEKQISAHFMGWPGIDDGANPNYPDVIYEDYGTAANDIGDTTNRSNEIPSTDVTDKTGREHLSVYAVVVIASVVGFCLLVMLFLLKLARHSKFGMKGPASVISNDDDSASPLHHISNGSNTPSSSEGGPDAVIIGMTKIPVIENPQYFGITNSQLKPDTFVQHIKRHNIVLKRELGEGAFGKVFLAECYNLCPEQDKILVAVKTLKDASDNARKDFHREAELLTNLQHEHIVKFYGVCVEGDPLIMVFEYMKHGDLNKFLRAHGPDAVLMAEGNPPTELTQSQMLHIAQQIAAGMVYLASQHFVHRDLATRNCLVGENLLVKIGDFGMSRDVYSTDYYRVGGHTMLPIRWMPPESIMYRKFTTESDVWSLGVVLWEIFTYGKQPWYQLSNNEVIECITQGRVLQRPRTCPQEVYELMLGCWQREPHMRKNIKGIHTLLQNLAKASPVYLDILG

B1: pre-pro-BDNF(-RGD)-myc-His6 (ligand)
chain: APMKEANIRGQGGLAYPGVRTHGTLESVNGPKAGSRGLTSLADTFEHVIEELLDEDQKVRPNEENNKDADLYTSRVMLSSQVPLEPPLLFLLEEYKNYLDAANMSMRVRRHSDPARRGELSVCDSISEWVTAADKKTAVDMSGGTVTVLEKVPVSKGQLKQYFYETKCNPMGYTKEGCRGIDKRHWNSQCRTTQSYVRALTMDSKKRIGWRFIRIDTSCVCTLTIKGSGEQKLISEEDLGSGHHHHHH
B1: in experiment [1], the BDNF activity in TrkBluciferase assay, EC50 [nM] amounted to 0.36 nM.

B2: pre-pro-BDNF(-RGR)-T7-His6 (ligand)
chain: HSDPARRGELSVCDSISEWVTAADKKTAVDMSGGTVTVLEKVPVSKGQLKQYFYETKCNPMGYTKEGCRGIDKRHWNSQCRTTQSYVRALTMDSKKRIGWRFIRIDTSCVCTLTIKGSGMASMTGGQQMGHHHHHH
In experiment [2], B2 registered a BDNF activity in TrkBluciferase assay, EC50 [% or nM] of 100%; a BDNF activity in TrkBluciferase assay, EC50 [nM] of 3.4 nM; a relative BDNF activity in TrkB luciferase assay, EC50 [%] of 100%. Moreover, the BDNF activity in TrkBluciferase assay, EC50 [nM] in experiment [1] turned out to be 3 nM.

The values are drawn from US20190271021A1.
